PMC7923638 (BMC Biotechnology, 2021)

Key:
[1] = target: T1, CsSDC (Camellia sinensis, UniProt A0A4S4DBB3); assay: decarboxylase activity with and without […] PLP, UPLC; format: biochemical; conditions: 20 mM serine, 40 °C, pH 7.0
T1 construct: gene SerDC; about 75 kDa on SDS-PAGE

[2] = substrate: C[C@H](N)C(=O)O; assay: purified protein; conditions: 45 °C, pH 8.0, 100 mM potassium phosphate, 0.1 mM PLP, 5 mM DTT, 1 mM K2EDTA, 10% glycerol, 1-100 mM substrate

T1 sequence (A0A4S4DBB3 entry or part of it): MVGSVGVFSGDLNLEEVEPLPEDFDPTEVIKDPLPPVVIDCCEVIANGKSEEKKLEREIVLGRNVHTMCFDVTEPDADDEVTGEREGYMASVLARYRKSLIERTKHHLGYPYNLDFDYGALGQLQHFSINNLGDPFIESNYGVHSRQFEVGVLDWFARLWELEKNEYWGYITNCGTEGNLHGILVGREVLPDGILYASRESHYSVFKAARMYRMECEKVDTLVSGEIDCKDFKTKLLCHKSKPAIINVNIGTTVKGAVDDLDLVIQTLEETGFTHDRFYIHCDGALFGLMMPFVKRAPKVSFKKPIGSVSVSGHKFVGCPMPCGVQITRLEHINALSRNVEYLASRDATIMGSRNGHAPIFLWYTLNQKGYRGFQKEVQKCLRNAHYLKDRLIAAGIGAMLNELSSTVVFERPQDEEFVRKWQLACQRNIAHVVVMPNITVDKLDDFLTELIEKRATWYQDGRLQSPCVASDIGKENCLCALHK

Molecule | decarboxylase activity with and without 0.1 mM PLP, UPLC [1] | Km [2] | Vmax [2]
Cc1ncc(COP(=O)(O)O)c(C=O)c1O [pyridoxal-5′-phosphate] | activities of CsAlaDC and CsSDC are significantly dependent on the presence of PLP |  | 
CsAlaDC (Camellia sinensis var. sinensis) (protein) MEGTVSVLSNVSKVELLSKCFDLITIPVEPLPPVVASNGVAGGETKNMKERDIVLGKNVHTTSLTITEPDVDDDSTSDMEAFMAGVLVRYRKTLIEKTKYHLGYPFNLDLDYGPLAELQHFAINNLGDPFIESNYGVHSRQFEVGVLDWFARLWEIEQKEYWGYITNGGTEGNLHGILIGREVFPDGIFYTSRESHYSIFKAARMYRMECVKVGTLINGEIDCADFKAKLLSNKDKPAIINLNIGTTVKGAVDDIDLVIQTLEECGFSHDRFYIHCDGALFGFMMPFLNRGPKITFKKPIGSVSVSGHKFMGCPTPCGVQITRLEHINALSRNVEYLASRDATITGSRNGHSPIILWYALNRKGFKGFQKEVQKCLRNAHYLKDRLREAGISAMLNELSSTVVFERPLDEEFVRRWQLACEGNMAHVIVMPNVTIEKLDEFLNELVQKRANWYNDGKAGPPCLAPDIGSENCDCDLHK |  | 33.25 mM | 3470 µmol/min/mg
